Results as given in article PMC5789848, “HTLV-1 Tax plugs and freezes UPF1 helicase leading to nonsense-mediated mRNA decay inhibition”.

T1: UPF1-HD (Homo sapiens, UniProt Q92900-2 295-914)
T1 sequence: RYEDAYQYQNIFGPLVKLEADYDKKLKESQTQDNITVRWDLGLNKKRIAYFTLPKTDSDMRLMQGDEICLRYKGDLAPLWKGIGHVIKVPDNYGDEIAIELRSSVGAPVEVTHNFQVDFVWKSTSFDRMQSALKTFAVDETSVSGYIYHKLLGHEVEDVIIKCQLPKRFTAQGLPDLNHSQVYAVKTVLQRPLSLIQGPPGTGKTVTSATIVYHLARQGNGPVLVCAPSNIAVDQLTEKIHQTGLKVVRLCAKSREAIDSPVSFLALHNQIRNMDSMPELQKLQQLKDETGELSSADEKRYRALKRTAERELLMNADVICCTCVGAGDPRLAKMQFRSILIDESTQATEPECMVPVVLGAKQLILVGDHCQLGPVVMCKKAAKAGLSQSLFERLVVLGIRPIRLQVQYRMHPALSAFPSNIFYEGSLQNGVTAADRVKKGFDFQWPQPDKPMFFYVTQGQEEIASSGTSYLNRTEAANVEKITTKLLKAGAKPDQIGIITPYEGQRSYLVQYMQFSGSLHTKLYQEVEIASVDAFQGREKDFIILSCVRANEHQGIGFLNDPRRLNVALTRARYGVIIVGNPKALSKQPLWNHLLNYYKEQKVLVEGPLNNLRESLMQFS


What was measured:
UPF1-HD [1] = target: T1, UPF1-HD; test: EMSA; UPF1-HD 0-10 nM, RNA 1 nM; BLI: 20 mM HEPES pH 7.5, 150 mM K acetate, 2 mM Mg acetate, 1 mM DTT, 6.3% glycerol, 0.1% NP-40; EMSA: 20 mM MES pH 6.0, 150 mM K acetate, 2 mM DTT, 0.2 ug/ul BSA, 6% glycerol, 30 C; pull-down: BLI-like buffer, 30 C then 4 C, 200 mM NaCl wash; conditions: protein: recombinant; tags: C-terminal His6 (CBP N-terminal and/or His6 per Methods); label: 32P; single strand
UPF1-HD [2] = target: T1, UPF1-HD; test: pull-down; 200 mM NaCl; BLI: 20 mM HEPES pH 7.5, 150 mM K acetate, 2 mM Mg acetate, 1 mM DTT, 6.3% glycerol, 0.1% NP-40; EMSA: 20 mM MES pH 6.0, 150 mM K acetate, 2 mM DTT, 0.2 ug/ul BSA, 6% glycerol, 30 C; pull-down: BLI-like buffer, 30 C then 4 C, 200 mM NaCl wash; conditions: protein: recombinant; tags: C-terminal His6 (CBP N-terminal and/or His6 per Methods); label: 3' biotin (BtnTg); single strand

Binder | binding result (UPF1-HD [1]) | binding result (UPF1-HD [2])
CGUCCAUCUGGUCAUCUAGUGAUAUCAUCG (ssRNA) [30-mer ssRNA (EMSA)] | binds | –
CGUCCAUCUGGUCAUCUAGUGAUAUCAUCG (ssRNA) [30-mer ssRNA 3'-biotin (pull-down)] | – | binds
